Results on one protein are retold here after US20120148565.

The target of data set [1] is GST fused WWP-1 (C. elegans HECT E3 ubiquitin ligase WWP-1, full length, wild type, N-terminal GST from pGEX-KG).
Chain of GST fused WWP-1 (C. elegans HECT E3 ubiquitin ligase WWP-1, full length, wild type, N-terminal GST from pGEX-KG) (chain, as listed by the source): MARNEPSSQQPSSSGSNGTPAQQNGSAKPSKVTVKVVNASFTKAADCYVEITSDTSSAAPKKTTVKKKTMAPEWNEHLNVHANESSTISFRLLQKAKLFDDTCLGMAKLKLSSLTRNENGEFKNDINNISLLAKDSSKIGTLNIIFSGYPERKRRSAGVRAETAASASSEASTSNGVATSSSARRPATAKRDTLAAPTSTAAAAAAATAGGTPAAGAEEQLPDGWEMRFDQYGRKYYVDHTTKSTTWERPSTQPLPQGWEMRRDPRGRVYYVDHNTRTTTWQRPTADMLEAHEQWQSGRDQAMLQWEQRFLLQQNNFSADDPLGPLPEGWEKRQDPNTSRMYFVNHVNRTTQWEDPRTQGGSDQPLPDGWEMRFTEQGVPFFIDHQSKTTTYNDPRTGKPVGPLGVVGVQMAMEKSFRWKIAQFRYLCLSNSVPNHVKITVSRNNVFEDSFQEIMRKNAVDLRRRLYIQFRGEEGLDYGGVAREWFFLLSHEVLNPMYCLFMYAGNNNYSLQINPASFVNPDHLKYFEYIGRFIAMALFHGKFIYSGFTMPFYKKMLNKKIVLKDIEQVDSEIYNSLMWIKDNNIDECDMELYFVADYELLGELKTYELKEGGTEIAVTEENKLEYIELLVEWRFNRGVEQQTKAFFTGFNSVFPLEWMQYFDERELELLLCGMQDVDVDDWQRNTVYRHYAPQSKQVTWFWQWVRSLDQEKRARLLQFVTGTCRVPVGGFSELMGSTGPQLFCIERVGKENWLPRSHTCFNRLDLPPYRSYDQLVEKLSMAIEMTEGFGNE

B1: recombinant UBC-18 (C. elegans E2 ubiquitin conjugating enzyme, GST tag removed by thrombin cleavage) (protein)
chain: MSATRRLQKELGDLKNCGVKAYENVECEETNLLKWTVLLIPDKEPYNKGAFKVGITFPVDYPFKPPKVAFETKIYHPNVDEEGKFCLPIVTAENWKPATKTEQVMMALLSLINEPEPSHPIRADVAEEFQKDHKKFMKTAEEHTRKHAEKRPE
Take B1: in data set [1], the “in vitro ubiquitination assay of WWP-1 with embryo extract from ubc-18(ku354) mutant worms, recombinant UBC-18 added back” value was “ligase activity was restored with the addition of recombinant UBC-18”; the “in vitro ubiquitination assay using purified components (anti-Flag immunoblot)” value was “WWP-1 exhibited ubiquitin ligase activity in an E1 and UBC-18 dependent manner”. For the same protein, in the data set with Flag tagged ubiquitin, the “in vitro ubiquitin conjugation reaction, SDS/PAGE with or without beta-mercaptoethanol” value was “UBC-18 is indeed a functional E2 and is capable of forming a thiol ester bond with ubiquitin”.
